Tests used:
Assay in all cases: EMSA; 0-1 ug protein; heparin 200 ug/ml added after binding; EMSA: 40 mM Tris pH 8.0, 30 mM KCl, 1 mM MgCl2, 0.01% NP-40, 1 mM DTT, 100 ng/ml yeast tRNA, 20 ul, 30 C 30-60 min, then on ice with heparin 200 ug/ml; 4-6% native PAGE 0.5x TBE, cold room
RPRD1B CID = molecular target: T1, RPRD1B CID (human, UniProt Q9NQG5 2-135); conditions: protein: recombinant; (pET28GST-LIC; 6xHis stated)
T1 sequence: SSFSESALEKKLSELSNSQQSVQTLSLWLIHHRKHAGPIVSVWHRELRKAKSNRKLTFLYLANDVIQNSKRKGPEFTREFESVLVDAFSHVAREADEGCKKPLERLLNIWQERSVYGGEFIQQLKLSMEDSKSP

[1] = molecular target: T2, RPRD1B coiled-coil domain (human, UniProt Q9NQG5 171-304); conditions: protein: recombinant; (pET28GST-LIC; 6xHis stated); chain copies: 2
T2 sequence: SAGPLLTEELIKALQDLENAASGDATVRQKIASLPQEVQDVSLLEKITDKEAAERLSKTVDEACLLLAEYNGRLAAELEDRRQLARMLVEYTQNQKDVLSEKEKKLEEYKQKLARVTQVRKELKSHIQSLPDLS

RPRD1B full length = molecular target: T3, RPRD1B full length (human, UniProt Q9NQG5 2-326); conditions: protein: recombinant; (pET28GST-LIC; 6xHis stated); chain copies: 2
T3 sequence: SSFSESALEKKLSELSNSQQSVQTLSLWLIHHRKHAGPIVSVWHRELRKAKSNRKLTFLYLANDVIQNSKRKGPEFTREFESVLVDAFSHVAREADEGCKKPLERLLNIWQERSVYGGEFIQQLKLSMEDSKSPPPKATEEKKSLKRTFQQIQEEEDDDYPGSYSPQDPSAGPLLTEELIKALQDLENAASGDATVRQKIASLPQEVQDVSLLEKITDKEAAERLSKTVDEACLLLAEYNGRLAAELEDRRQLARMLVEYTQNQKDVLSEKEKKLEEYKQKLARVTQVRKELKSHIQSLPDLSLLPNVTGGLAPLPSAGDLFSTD

Binder	binding result (RPRD1B CID)	binding result [1]	binding result (RPRD1B full length)
GEMIN7 3' UTR probe (ssRNA) RNA: AUUUGAUUUCAUUUUGGGGCGGGCGGUGGCUCGUGCUGGGUCACGUGGUCGUGCCAAGCGCUCCUCCUGUUGCCCCACCUGUGGUUGCUGUGGACUGCAC	binds	no binding	binds
GEMIN7 exon 2 probe (ssRNA) RNA: GCGGCUUCUCUGUUGACAACUCAGCUGGUUCCACACCCUGGCAAUUGUGAAGAGUUGGCCAAAUGUUUGUCCACUGAGCUGAUCUCCUCUCUGGAGCACC			no binding
